According to patent US7556927:
Values belong to the binder of their own block, whether it stands above or below them.

Assays:
[1] = target: copper-induced oxidized low density lipoprotein (Cu-OxLDL) (UniProt P04114); assay: competition: ^125I-Cu-OxLDL binding to mouse peritoneal macrophages at 4 C, IK17 as competitor
[2] = target: malondialdehyde low density lipoprotein (MDA-LDL) (UniProt P04114); assay: direct binding and competition assays with affinity purified Fab; method of the affinity value not stated
[3] = target: copper-induced oxidized low density lipoprotein (Cu-OxLDL) (UniProt P04114); assay: cell-based or functional assay
[4] = target: copper-induced oxidized low density lipoprotein (Cu-OxLDL) (UniProt P04114); assay: chemiluminescent ELISA, against Fab IK17 as reference
[5] = target: malondialdehyde low density lipoprotein (MDA-LDL) (UniProt P04114); assay: as above

% inhibition of binding of ^125I-Cu-OxLDL to macrophages [1]: 70 to 85%
Kd [2]: 37 nM
degradation of ^125I-Cu-OxLDL by macrophages (TCA-soluble ^125I in medium), % inhibition [3]: 50 to 65%
B1: IK17 human monoclonal IgG Fab (Fab, V domains shown)
VH: EVQLLESGGDLVQPGGSLRLSCIVSGSTFSNYAMSWVRQAPGKGLEWVSAISGTGRSTNYADSVKGRFTISRDNSKDTLYLEMNSLRAEDTATYYCTRTPRIDFWNIANRHFDYWGQGTRVTVSS
VL: VLTQSPATLSLSPGERVTLSCRASQSVSSSLAWYQQKPGQAPRLLIYDASNRATGVPARFSGSGSGTDFTLTISGLEPEDFAVYYCQQRYNWPPKYTFGQGTKLEIRR

fold greater binding activity than parent Fab [4]: 50 to 500 fold
fold greater binding activity than parent Fab [5]: 50 to 500 fold
B2: scFv IK17 (scFv, part only; not given: linker and His tag, not shown: small tags and cut ends)
scFv, part: MAEVQLLESGGDLVQPGGSLRLSCIVSGSTFSNYAMSWVRQAPGKGLEWVSAISGTGRSTNYADSVKGRFTISRDNSKDTLYLEMNSLRAEDTATYYCTRTPRIDFWNIANRHFDYWGQGTRVTVSSASTKGPSVFPLAPSSKSTSGGTAALGCLVRDYFPEPVTVSWNSGALTSGVHTFPAVLQSSGLYSLSSVVTVPSSVLTQSPATLSLSPGERVTLSCRASQSVSSSLAWYQQKPGQAPRLLIYDASNRATGVPARFSGSGSGTDFTLTISGLEPEDFAVYYCQQRYNWPPKYTFGQGTKLEIRRTVAAPSVFIFPPSDEQLKSGTASVVCLLNNFYPREAKVQWKVG
